Holding throughout (experiment): BLI (Gator), antibody on protein A probe, F mutant supernatant held 1 h at 60° C.
The target of experiment [1] is SC-TM (positive control) RSV F protein.
Experiment [2] deals with RSV F protein mutant YK001Ag403 (RSV A) (UniProt P12568).
The target of experiment [3] is RSV F protein mutant YK001Ag400 (RSV A) (UniProt P12568).
The target in experiment [4] is RSV F protein mutant YK001Ag222 (RSV A) (UniProt P12568).
The target of experiment [5] is RSV F protein mutant YK001Ag407 (RSV A) (RSV A) (UniProt P11209).
The target of experiment [6] is RSV F protein mutant YK001Ag406 (RSV A) (RSV A) (UniProt P11209).
Experiment [7] deals with RSV F protein mutant YK001Ag410 (AHV80758, RSV B) (RSV B).
The target of experiment [8] is RSV F protein mutant YK001Ag399 (RSV A) (RSV A) (UniProt P11209).
Experiment [9] addresses RSV F protein mutant YK001Ag404 (RSV A) (RSV A) (UniProt P11209).
The target of experiment [10] is DS-CavI (positive control) RSV F protein.
Experiment [11] concerns the target RSV F protein mutant YK001Ag402 (RSV A) (UniProt P12568).
Experiment [12] deals with RSV F protein mutant YK001Ag401 (RSV A) (RSV A) (UniProt P11209).
Experiment [13] deals with RSV F protein mutant YK001Ag411 (AVQ93588.1, RSV B) (RSV B).

On to monoclonal antibody AM14, for which the Activity of antibody AM14 after 1 h at 60° C. (%) in [1] was found to be 1.3%; in experiment [2] it was 81%; in experiment [3], 1.4%; in experiment [4], 1.1%; in experiment [5], 52.6%; in experiment [6] it was 45.5%. Also, the Activity of antibody AM14 after 1 h at 60° C. (%) in experiment [7] was 67.7%; in experiment [8], 99.8%; in experiment [9], 60.9%; in experiment [10], 9.9%; in [11] it was 28.6%; in [12] it was 2.2%. Besides, the Activity of antibody AM14 after 1 h at 60° C. (%) in experiment [13] was 69.5%.
Consider monoclonal antibody D25, for which the Activity of antibody D25 after 1 h at 60° C. (%) in experiment [1] turned out to be 21%; in experiment [2] it was 89.7%; in experiment [3], 15.6%; in experiment [4], 5.8%; in [5], 77.2%; in [6], 60.4%. Moreover, the Activity of antibody D25 after 1 h at 60° C. (%) in experiment [7] came to 88.7%; in experiment [8] it was 80.8%; in experiment [9], 75.4%; in experiment [10], 103%; in experiment [11], 84%; in [12], 20.8%. In [13], this substance had an Activity of antibody D25 after 1 h at 60° C. (%) of 91.4%.

These data come from patent US20250205329A1.
